Reference: patent US20240209334A1, “SMALL-MOLECULE-ACTIVATED GLYCAN MODIFYING ENZYMES AND USES THEREOF” (President and Fellows of Harvard College, priority 2022, published 2024)

Columns and labels:
[1] = system: Nup62; assay: Screen of intein insertion sites: OGA-intein variants co-expressed with Nup62 in HEK293T cells, immunoblot; type: cell-based
From the text: OGA is a multi-domain hydrolase responsible for O-GlcNAc removal in mammalian cells. Based on the reported crystal structures of OGA (27-29), the essential domains of the long splice variant of OGA were identified, and it was confirmed that the HAT domain is not required for its deglycosidase activity in cells (13). In addition, replacement of the disordered region between the catalytic domain and the stalk domain with a glycine-serine flexible linker (GS-linker) maintained its activity in live cells in the absence of the C-terminal HAT domain (13, 28). This variant, termed miniOGA, was selected as the initial template for engineering with an intein due to its smaller size and simpler structure (FIG. 2A). […] Inserting this evolved 4-HT-responsive intein into a site that abolishes miniOGA activity until protein splicing has taken place could result in a conditionally active OGA for O-GlcNAc removal under the control of 4-HT. As intein splicing would leave behind a single cysteine residue (22), and to minimize alterations on OGA protein sequence, cysteine residues across different structural domains and the GS-linker at miniOGA were selected as the candidate insertion sites, thus generating OGA-intein fusion constructs for nine positions in total (C62, C166, C181, C220, C316, C596, C631, C663, and the GS-linker) (FIG. 2A). The nine OGA-intein variants were transiently expressed in HEK293T cells together with a model glycoprotein Nup62. Cells were treated with or without 1 μM 4-HT for 24 hours after transfection. OGA-intein variants were then detected by the Myc tag to verify the expected splicing, and their enzymatic activities were evaluated by detection of O-GlcNAc on the substrate Nup62 following immunoprecipitation.
(§1) Immunoprecipitation and Immunoblot assays. […]
(§2) For immunoblotting analysis, proteins were transferred to a nitrocellulose membrane using an iBlot system (Invitrogen). […] Immunoblot images were captured using Azure Imager C600 and analyzed with Fiji ImageJ for converting all IR fluorescence western blot images to grayscale images.

[2] = system: Nup62; assay: Spatial deglycosylation of cytoplasmic Nup62 by OGA-intein(C181) variants in HEK293T cells; type: cell-based; conditions: cytoplasmic Nup62 co-expressed
Description: (§3) Next, it was assessed whether these OGA-intein(C181) variants enable selective spatial deglycosylation in live cells. As O-GlcNAc affects the subcellular localization of many proteins (37), Nup62 was used as a model cytoplasmic substrate, which was previously primarily localized in the cytoplasm when transiently overexpressed in HEK293T cells independent of the O-GlcNAcylation state (13) (FIGS. 11A, 11B). Nup62 was co-expressed with three OGA-intein(C181) variants (C181-WT, C181-NLS, and C181-NES) in HEK293T cells, and Nup62 was enriched for O-GlcNAc measurement. […] Next, Nup62 was localized to the nucleus by attachment to an NLS tag (Nup62-NLS), and a similar coexpression and 4-HT-triggered activation was performed with OGA-intein(C181) variants. […] The fluorescent intensity of OGA-intein variants also show a strong correlation to the localization of Nup62, indicating the desired subcellular distribution (FIGS. 11A-C).
as §1, §2

[3] = system: global O-GlcNAc level in MCF-7 cells; assay: Immunoblot of global O-GlcNAc level and splicing in MCF-7 stable cell lines; type: cell-based, human; conditions: MCF-7 cells stably expressing the variant
From the text: In addition to serving as an activator for intein splicing, 4-HT is also known as the active metabolite of tamoxifen, an FDA-approved drug for treating breast cancer patients. Breast cancer cells also have elevated OGT expression (39) and decreased levels of OGA (40, 41), resulting in elevated O-GlcNAcylation in the proteome. OGT is usually required for tumor growth and metastasis (39), and low OGA expression is correlated with poor survival in breast cancer patients (FIG. 13). The ER positive breast cancer-derived MCF-7 cell line is sensitive to tamoxifen and 4-HT, resulting in suppression of cell proliferation, yet drug resistance occurs after long-term treatment (42). Previous studies also show evidence that upregulation of O-GlcNAcylation protects MCF-7 cells from tamoxifen-induced cell death (43). To determine if reduction of O-GlcNAc sensitized MCF-7 cells to 4-HT treatment, it was assessed whether 4-HT induced inhibition of breast cancer cell proliferation and OGA-intein activation worked synergistically to accelerate cell death (FIG. 5A). […] Next, these two cell lines were treated with 4-HT at increasing concentrations, and cell viability was measured after 48 hours. […] Given that 4-HT promoted MCF-7 cell death through apoptosis (43), the apoptosis of these cells under 4-HT treatment was further analyzed through flow cytometry analyses following Annexin V and DAPI staining. […]

[4] = system: Nup62-NLS; assay: Spatial deglycosylation of nuclear Nup62-NLS by OGA-intein(C181) variants in HEK293T cells; type: cell-based; conditions: nuclear Nup62-NLS co-expressed
Description: as §3, §1, §2

Molecule	intein splicing / spliced product on 4-HT treatment ([1]; 1 μM 4-HT for 24 hours, Myc tag detection)	deglycosylation activity in the presence of 4-HT ([1]; co-expressed Nup62, 1 μM 4-HT for 24 hours)	OGA activity (deglycosylation of Nup62) in the absence of 4-HT ([1]; co-expressed Nup62, without 4-HT)	removal of O-GlcNAc from Nup62 after 4-HT-triggered activation [2]	global O-GlcNAc level after adding 4-HT [3]	4-HT-induced deglycosylation of Nup62-NLS [4]
OGA-intein(C181): miniOGA with the 4-HT-responsive evolved intein inserted at C181 (protein) MEQKLISEEDLAIAMVQKESQATLEERESELSSNPAASAGASLEPPAAPAPGEDNPAGAGGAAVAGAAGGARRFLCGVVEGFYGRPWVMEQRKELFRRLQKWELNTYLYAPKDDYKHRMFWREMYSVEEAEQLMTLISAAREYEIEFIYAISPGLDITFSNPKEVSTLKRKLDQVSQFGCRSFALLFDDIDHNMCLAEGTRIFDPVTGTTHRIEDVVDGRKPIHVVAAAKDGTLLARPVVSWFDQGTRDVIGLRIAGGAIVWATPDHKVLTEYGWRAAGELRKGDRVAGPGGSGNSLALSLTADQMVSALLDAEPPILYSEYDPTSPFSEASMMGLLTNLADRELVHMINWAKRVPGFVDLTLHDQAHLLERAWLEILMIGLVWRSMEHPGKLLFAPNLLLDRNQGKCVEGMVEIFDMLLATSSRFRMMNLQGEEFVCLKSIILLNSGVYTFLSSTLKSLEEKDHIHRALDKITDTLIHLMAKAGLTLQQQHQRLAQLLLILSHIRHMSNKGMEHLYSMKYKNVVPLYDLLLEMLDAHRLHAGGSGASRVQAFADALDDKFLHDMLAEGLRYSVIREVLPTRRARTFDLEVEELHTLVAEGVVVHNCAADKEVFSSFAHAQVSITNEIYQYLGEPETFLFCPTEYCGTFCYPNVSQSPYLRTVGEKLLPGIEVLWTGPKVVSKEIPVESIEEVSKIIKRAPVIWDNIHANDYDQKRLFLGPYKGRSTELIPRLKGVLTNPNCEFEANYVAIHTLATWYKSNMNGVRKDVVMTDSEDSTVSIQIKLENEGSDEDIETDVLYSPQMALKLALTEWLQEFGVPHQYSSRGSGSGSGSGSGSGSGEKPLYTAEPVTLEDLQLLADLFYLPYEHGPKGAQMLREFQWLRANSSVVSVNCKGKDSEKIEEWRSRAAKFEEMCGLVMGMFTRLSNCANRTILYDMYSYVWDIKSIMSMVKSFVQWLGCRSHSSAQFLIGDQEPWAFRGGLAGEFQRLLPIDGANDLFFQPP	yielding the active spliced product	high deglycosylation activity	little activity	removed O-GlcNAc from Nup62	decreased global O-GlcNAc level	4-HT-induced deglycosylation
C181_D174N: catalytically dead mutant (D174N) of OGA-intein(C181) (protein) MEQKLISEEDLAIAMVQKESQATLEERESELSSNPAASAGASLEPPAAPAPGEDNPAGAGGAAVAGAAGGARRFLCGVVEGFYGRPWVMEQRKELFRRLQKWELNTYLYAPKDDYKHRMFWREMYSVEEAEQLMTLISAAREYEIEFIYAISPGLDITFSNPKEVSTLKRKLDQVSQFGCRSFALLFNDIDHNMCLAEGTRIFDPVTGTTHRIEDVVDGRKPIHVVAAAKDGTLLARPVVSWFDQGTRDVIGLRIAGGAIVWATPDHKVLTEYGWRAAGELRKGDRVAGPGGSGNSLALSLTADQMVSALLDAEPPILYSEYDPTSPFSEASMMGLLTNLADRELVHMINWAKRVPGFVDLTLHDQAHLLERAWLEILMIGLVWRSMEHPGKLLFAPNLLLDRNQGKCVEGMVEIFDMLLATSSRFRMMNLQGEEFVCLKSIILLNSGVYTFLSSTLKSLEEKDHIHRALDKITDTLIHLMAKAGLTLQQQHQRLAQLLLILSHIRHMSNKGMEHLYSMKYKNVVPLYDLLLEMLDAHRLHAGGSGASRVQAFADALDDKFLHDMLAEGLRYSVIREVLPTRRARTFDLEVEELHTLVAEGVVVHNCAADKEVFSSFAHAQVSITNEIYQYLGEPETFLFCPTEYCGTFCYPNVSQSPYLRTVGEKLLPGIEVLWTGPKVVSKEIPVESIEEVSKIIKRAPVIWDNIHANDYDQKRLFLGPYKGRSTELIPRLKGVLTNPNCEFEANYVAIHTLATWYKSNMNGVRKDVVMTDSEDSTVSIQIKLENEGSDEDIETDVLYSPQMALKLALTEWLQEFGVPHQYSSRGSGSGSGSGSGSGSGEKPLYTAEPVTLEDLQLLADLFYLPYEHGPKGAQMLREFQWLRANSSVVSVNCKGKDSEKIEEWRSRAAKFEEMCGLVMGMFTRLSNCANRTILYDMYSYVWDIKSIMSMVKSFVQWLGCRSHSSAQFLIGDQEPWAFRGGLAGEFQRLLPIDGANDLFFQPP	–	–	–	–	inactive form	–
